Results as given in patent publication US20230391876A1 (HANALL BIOPHARMA, published 2023).

Assays:
[1] = biological target: T1, hFcRn on hFcRn-expressing HEK293 cells (human, UniProt P55899 24-365; P61769 21-119); assay: FACS on hFcRn HEK293 cells, 10 nM antibody, pH 6.0
T1 construct: whole, on cells; also called hFcRn HEK293
Protocol: (§1) The analysis of hFcRn binding using FACS was carried out under two conditions of pH 6.0 and pH 7.4. hFcRn-expressing 1TEK293 (hFcRn HEK293) cells were diluted with the reaction buffer (0.0500 BSA in PBS, pH 6.0 or pH 7.4) and prepared in duplicate in a 96 well plate at 1×10⁵ cells for each sample. In addition, each antibody sample was diluted with the reaction buffer to 10 nM, and then put into a 96 well plate, and incubated at 4° C. for 90 minutes. Thereafter, the plate was centrifuged to remove the supernatant, and then Alexa488-goat anti-hIgG Ab (1:200) was added thereto, and again incubated at 4° C. for 90 minutes. After the reaction was completed, it was centrifuged to remove the supernatant, and 200 μL of the reaction buffer was added to resuspend the cell pellet, and then the MFI value was measured in a FACS instrument.

[2] = biological target: T1, hFcRn on hFcRn-expressing HEK293 cells; assay: FACS on hFcRn HEK293 cells, pH 6.0; head prints 'FACS binding (EC50, nM)', taken as blocking of competitor Alexa488-hIgG1 (Example 4.5)
Protocol: 1×10⁷ hFcRn HEK293 cells were seeded into a T75 flask and cultured for 24 hours. After culturing, the cells were removed and placed in a 96 well plate at 1×10⁵ cells for each sample in duplicate. […] After the reaction was completed, it was centrifuged to remove the supernatant. 200 μL of the reaction buffer was added to resuspend the cell pellet, and then the MFI value was measured in a FACS instrument.

[3] = biological target: T1, hFcRn on hFcRn-expressing HEK293 cells; assay: FACS on hFcRn HEK293 cells, 10 nM antibody, pH 7.4
Protocol: as §1

[4] = biological target: T2, shFcRn (soluble human FcRn) (human, UniProt P55899 24-297; P61769 21-119); assay: SPR, shFcRn immobilized on chip, antibody as analyte, pH 7.4;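 note: kinetics fitted with a 1:1 Langmuir model, association 200 s and dissociation 600 s in PBST, double-referenced against buffer-only and interspot signals, values averaged over repeated runs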
T2 construct: extracellular domain; Printed only as 'soluble human FcRn'; also called hFcRn (immobilized on a chip)
T2 sequence (P55899 24-297 limits assumed, chain 1 of 2): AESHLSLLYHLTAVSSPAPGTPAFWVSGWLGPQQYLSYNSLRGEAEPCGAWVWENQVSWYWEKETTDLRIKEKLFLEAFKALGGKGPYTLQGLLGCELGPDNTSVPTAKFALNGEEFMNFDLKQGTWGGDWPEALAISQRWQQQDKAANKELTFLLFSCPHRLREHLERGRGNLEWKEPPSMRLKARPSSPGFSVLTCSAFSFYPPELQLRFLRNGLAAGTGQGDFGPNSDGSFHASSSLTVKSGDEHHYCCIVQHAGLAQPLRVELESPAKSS
T2 sequence (P61769 21-119 limits assumed, chain 2 of 2): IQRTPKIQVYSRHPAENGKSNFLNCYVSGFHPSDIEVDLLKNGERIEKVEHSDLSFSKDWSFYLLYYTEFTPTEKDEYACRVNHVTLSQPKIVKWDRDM
Protocol: (§2) Kinetic analysis was performed using a 1:1 Langmuir binding model, and the average KD value was obtained by repeating the analysis 6 times in each condition of pH 6.0 and pH 7.4.
(§3) Chip activation was performed under EDAC/NHS 0.5×, 30 μL/min, and 300 sec conditions. Thereafter, shFcRn was prepared at 2 μg/mL, 250 μL using an acetate buffer (pH 5.5), and immobilization was performed while flowing at 30 μL/min. The reaction was stopped when the immobilization level corresponded to 200 RU to 300 RU. Thereafter, deactivation was performed using ethanolamine at 30 μL/min, 300 sec. […] Sample dilution was performed using 1×PBST (pH 7.4) or 1×PBST (pH 6.0) buffer depending on the analysis pH. In the sample analysis conditions, association was carried out by reaction at 50 μL/min, 200 sec, and dissociation was carried out by reaction at 50 μL/min, 600 sec. Thereafter, reaction was carried out using a glycine buffer (pH 2.0) at 100 μL/min, 18 sec to perform regeneration. For kinetic analysis, samples were prepared and reacted once in three cells to which shFcRn was immobilized. Then three kinetic values were obtained, and then an average KD value was measured. When analyzing reaction signals, interspot-referencing and signals in which only buffer was analyzed were used for a double-referencing.

[5] = biological target: T2, shFcRn (soluble human FcRn); assay: SPR, shFcRn immobilized on chip, antibody as analyte, pH 6.0;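 note: kinetics fitted with a 1:1 Langmuir model, association 200 s and dissociation 600 s, samples diluted in PBST, double-referenced signals, values averaged across three shFcRn-coated cells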
Protocol: as §2, §3

[6] = biological target: T2, shFcRn (soluble human FcRn); assay: SPR, hFcRn immobilized on chip, pH 7.4
Protocol: as §2, §3

[7] = biological target: T2, shFcRn (soluble human FcRn); assay: SPR, hFcRn immobilized on chip, pH 6.0
Protocol: as §2, §3

T1 sequence (P55899 24-365 limits assumed, chain 1 of 2): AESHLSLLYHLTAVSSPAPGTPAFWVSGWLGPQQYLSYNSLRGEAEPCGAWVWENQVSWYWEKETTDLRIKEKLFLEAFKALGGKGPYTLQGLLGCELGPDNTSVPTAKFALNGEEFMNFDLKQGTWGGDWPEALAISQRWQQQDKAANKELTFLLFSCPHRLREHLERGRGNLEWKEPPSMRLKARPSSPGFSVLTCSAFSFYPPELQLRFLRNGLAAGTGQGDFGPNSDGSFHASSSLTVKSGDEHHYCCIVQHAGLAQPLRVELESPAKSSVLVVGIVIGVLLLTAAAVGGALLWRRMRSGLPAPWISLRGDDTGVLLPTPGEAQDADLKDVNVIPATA
T1 sequence (P61769 21-119 limits assumed, chain 2 of 2): as the sequence (P61769 21-119 limits assumed, chain 2 of 2) above

B1: HL161AN variant No. 3 (LC:N25S, HC:Q82S) (antibody, human IgG1, V domains shown)
VL: SYVLTQPPSVSVAPGQTARITCGGSNIGSTSVHWYQQKPGQAPVLVVHDDSDRPSGIPERFSGSNSGNTATLTISRVEAGDEADYYCQVRDSSSDHVIFGGGTKLTVLGQPKAAPSVTL
VH: EVQLLESGGGLVQPGGSLRLSCAASEFTFGSCVMTWVRQAPGKGLEWVSVISGSGGSTYYADSVKGRFTISRDNSKNTLYLSMNSLRAEDTAVYYCAKTPWWLRSPFFDYWGQGTLVTVSS
notes: Variable domains only
With B1 the MFI [1] was 2440 MFI, the EC50 [2] was 1.4 nM and the MFI [3] was 6240 MFI. For the same binder, the Kd [4] was 0.199 nM, the Kd [5] was 0.145 nM and the Kd [6] was 0.21 nM.

B2: HL161AN variant No. 5 (LC:N25S, HC:Q82E) (antibody, human IgG1, V domains shown)
VL: SYVLTQPPSVSVAPGQTARITCGGSNIGSTSVHWYQQKPGQAPVLVVHDDSDRPSGIPERFSGSNSGNTATLTISRVEAGDEADYYCQVRDSSSDHVIFGGGTKLTVLGQPKAAPSVTL
VH: EVQLLESGGGLVQPGGSLRLSCAASEFTFGSCVMTWVRQAPGKGLEWVSVISGSGGSTYYADSVKGRFTISRDNSKNTLYLEMNSLRAEDTAVYYCAKTPWWLRSPFFDYWGQGTLVTVSS
notes: Variable domains only
B2 gave an MFI [1] of 2570 MFI, an EC50 [2] of 1.46 nM and an MFI [3] of 6350 MFI. For the same binder, the Kd [7] was 0.16 nM, the Kd [4] was 0.637 nM and the koff [4] was 0.000743 s⁻¹. It also gave a kon [4] of 1.17e+06 M⁻¹ s⁻¹, a Kd [5] of 0.229 nM and a koff [5] of 0.000563 s⁻¹. It also gave a kon [5] of 2.46e+06 M⁻¹ s⁻¹ and a Kd [6] of 0.67 nM.

B3: HL161AN variant No. 9 (LC:N25S, HC:C32Y Q82S) (antibody, human IgG1, V domains shown)
VL: SYVLTQPPSVSVAPGQTARITCGGSNIGSTSVHWYQQKPGQAPVLVVHDDSDRPSGIPERFSGSNSGNTATLTISRVEAGDEADYYCQVRDSSSDHVIFGGGTKLTVLGQPKAAPSVTL
VH: EVQLLESGGGLVQPGGSLRLSCAASEFTFGSYVMTWVRQAPGKGLEWVSVISGSGGSTYYADSVKGRFTISRDNSKNTLYLSMNSLRAEDTAVYYCAKTPWWLRSPFFDYWGQGTLVTVSS
notes: Variable domains only
Binder B3 has an MFI [1] of 2660 MFI, an EC50 [2] of 1.43 nM and an MFI [3] of 6750 MFI. The Kd [7] was 0.16 nM, the Kd [4] was 0.245 nM and the Kd [5] was 0.177 nM.

B4: HL161AN variant No. 10 (LC:N25S, HC:C32Y Q82T) (antibody, human IgG1, V domains shown)
VL: SYVLTQPPSVSVAPGQTARITCGGSNIGSTSVHWYQQKPGQAPVLVVHDDSDRPSGIPERFSGSNSGNTATLTISRVEAGDEADYYCQVRDSSSDHVIFGGGTKLTVLGQPKAAPSVTL
VH: EVQLLESGGGLVQPGGSLRLSCAASEFTFGSYVMTWVRQAPGKGLEWVSVISGSGGSTYYADSVKGRFTISRDNSKNTLYLTMNSLRAEDTAVYYCAKTPWWLRSPFFDYWGQGTLVTVSS
notes: Variable domains only
B4 was tested, and the MFI [1] was 2580 MFI, the EC50 [2] was 1.37 nM and the MFI [3] was 6660 MFI. For the same binder, the Kd [7] was 0.15 nM, the Kd [4] was 0.256 nM and the koff [4] was 0.000494 s⁻¹. The kon [4] was 1.93e+06 M⁻¹ s⁻¹, the Kd [5] was 0.205 nM and the koff [5] was 0.000573 s⁻¹. For the same binder, the kon [5] was 2.8e+06 M⁻¹ s⁻¹ and the Kd [6] was 0.36 nM.

B5: HL161AN variant No. 7 (LC:N25S, HC:C32S Q82T) (antibody, human IgG1, V domains shown)
VL: SYVLTQPPSVSVAPGQTARITCGGSNIGSTSVHWYQQKPGQAPVLVVHDDSDRPSGIPERFSGSNSGNTATLTISRVEAGDEADYYCQVRDSSSDHVIFGGGTKLTVLGQPKAAPSVTL
VH: EVQLLESGGGLVQPGGSLRLSCAASEFTFGSSVMTWVRQAPGKGLEWVSVISGSGGSTYYADSVKGRFTISRDNSKNTLYLTMNSLRAEDTAVYYCAKTPWWLRSPFFDYWGQGTLVTVSS
notes: Variable domains only
With B5 the MFI [1] was 2550 MFI, the EC50 [2] was 1.28 nM and the MFI [3] was 6620 MFI. For the same binder, the Kd [4] was 0.187 nM, the Kd [5] was 0.152 nM and the Kd [6] was 0.21 nM.

B6: HL161AN variant No. 15 (LC:N25Q, HC:Q82T) (antibody, human IgG1, V domains shown)
VL: SYVLTQPPSVSVAPGQTARITCGGQNIGSTSVHWYQQKPGQAPVLVVHDDSDRPSGIPERFSGSNSGNTATLTISRVEAGDEADYYCQVRDSSSDHVIFGGGTKLTVLGQPKAAPSVTL
VH: EVQLLESGGGLVQPGGSLRLSCAASEFTFGSCVMTWVRQAPGKGLEWVSVISGSGGSTYYADSVKGRFTISRDNSKNTLYLTMNSLRAEDTAVYYCAKTPWWLRSPFFDYWGQGTLVTVSS
notes: Variable domains only
In the case of B6, the MFI [1] is reported as 2570 MFI, the EC50 [2] is reported as 1.1 nM and the MFI [3] is reported as 6540 MFI. For the same binder, the Kd [7] was 0.33 nM, the Kd [4] was 0.279 nM and the koff [4] was 0.000513 s⁻¹. The kon [4] was 1.84e+06 M⁻¹ s⁻¹, the Kd [5] was 0.265 nM and the koff [5] was 0.000601 s⁻¹. For the same binder, the kon [5] was 2.27e+06 M⁻¹ s⁻¹ and the Kd [6] was 0.36 nM.

B7: HL161AN variant No. 17 (LC:N25Q, HC:C32S Q82S) (antibody, human IgG1, V domains shown)
VL: SYVLTQPPSVSVAPGQTARITCGGQNIGSTSVHWYQQKPGQAPVLVVHDDSDRPSGIPERFSGSNSGNTATLTISRVEAGDEADYYCQVRDSSSDHVIFGGGTKLTVLGQPKAAPSVTL
VH: EVQLLESGGGLVQPGGSLRLSCAASEFTFGSSVMTWVRQAPGKGLEWVSVISGSGGSTYYADSVKGRFTISRDNSKNTLYLSMNSLRAEDTAVYYCAKTPWWLRSPFFDYWGQGTLVTVSS
notes: Variable domains only
B7 showed an MFI [1] of 2640 MFI, an EC50 [2] of 1.3 nM and an MFI [3] of 6750 MFI. For the same binder, the Kd [7] was 0.22 nM, the Kd [4] was 0.249 nM and the koff [4] was 0.000566 s⁻¹. It also gave a kon [4] of 2.27e+06 M⁻¹ s⁻¹, a Kd [5] of 0.169 nM and a koff [5] of 0.000538 s⁻¹. For the same binder, the kon [5] was 3.19e+06 M⁻¹ s⁻¹ and the Kd [6] was 0.3 nM.

B8: HL161AN variant No. 16 (LC:N25Q, HC:Q82E) (antibody, human IgG1, V domains shown)
VL: SYVLTQPPSVSVAPGQTARITCGGQNIGSTSVHWYQQKPGQAPVLVVHDDSDRPSGIPERFSGSNSGNTATLTISRVEAGDEADYYCQVRDSSSDHVIFGGGTKLTVLGQPKAAPSVTL
VH: EVQLLESGGGLVQPGGSLRLSCAASEFTFGSCVMTWVRQAPGKGLEWVSVISGSGGSTYYADSVKGRFTISRDNSKNTLYLEMNSLRAEDTAVYYCAKTPWWLRSPFFDYWGQGTLVTVSS
notes: Variable domains only
Binder B8 has an MFI [1] of 2540 MFI, an EC50 [2] of 1.74 nM and an MFI [3] of 6210 MFI. The Kd [7] was 0.33 nM, the Kd [4] was 0.272 nM and the koff [4] was 0.000504 s⁻¹. It also gave a kon [4] of 1.86e+06 M⁻¹ s⁻¹, a Kd [5] of 0.271 nM and a koff [5] of 0.000556 s⁻¹. The kon [5] was 2.05e+06 M⁻¹ s⁻¹ and the Kd [6] was 0.43 nM.

B9: HL161AN variant No. 14 (LC:N25Q, HC:Q82S) (antibody, human IgG1, V domains shown)
VL: SYVLTQPPSVSVAPGQTARITCGGQNIGSTSVHWYQQKPGQAPVLVVHDDSDRPSGIPERFSGSNSGNTATLTISRVEAGDEADYYCQVRDSSSDHVIFGGGTKLTVLGQPKAAPSVTL
VH: EVQLLESGGGLVQPGGSLRLSCAASEFTFGSCVMTWVRQAPGKGLEWVSVISGSGGSTYYADSVKGRFTISRDNSKNTLYLSMNSLRAEDTAVYYCAKTPWWLRSPFFDYWGQGTLVTVSS
notes: Variable domains only
B9 gave an MFI [1] of 2590 MFI, an EC50 [2] of 1.29 nM and an MFI [3] of 6490 MFI. The Kd [7] was 0.2 nM, the Kd [4] was 0.283 nM and the koff [4] was 0.000551 s⁻¹. For the same binder, the kon [4] was 1.95e+06 M⁻¹ s⁻¹, the Kd [5] was 0.208 nM and the koff [5] was 0.000558 s⁻¹. The kon [5] was 2.68e+06 M⁻¹ s⁻¹ and the Kd [6] was 0.35 nM.

B10: HL161AN variant No. 4 (LC:N25S, HC:Q82T) (antibody, human IgG1, V domains shown)
VL: SYVLTQPPSVSVAPGQTARITCGGSNIGSTSVHWYQQKPGQAPVLVVHDDSDRPSGIPERFSGSNSGNTATLTISRVEAGDEADYYCQVRDSSSDHVIFGGGTKLTVLGQPKAAPSVTL
VH: EVQLLESGGGLVQPGGSLRLSCAASEFTFGSCVMTWVRQAPGKGLEWVSVISGSGGSTYYADSVKGRFTISRDNSKNTLYLTMNSLRAEDTAVYYCAKTPWWLRSPFFDYWGQGTLVTVSS
notes: Variable domains only
B10 gave an MFI [1] of 2690 MFI, an EC50 [2] of 1.47 nM and an MFI [3] of 6300 MFI. For the same binder, the Kd [4] was 0.24 nM, the Kd [5] was 0.156 nM and the Kd [6] was 0.27 nM.

B11: HL161AN variant No. 6 (LC:N25S, HC:C32S Q82S) (antibody, human IgG1, V domains shown)
VL: SYVLTQPPSVSVAPGQTARITCGGSNIGSTSVHWYQQKPGQAPVLVVHDDSDRPSGIPERFSGSNSGNTATLTISRVEAGDEADYYCQVRDSSSDHVIFGGGTKLTVLGQPKAAPSVTL
VH: EVQLLESGGGLVQPGGSLRLSCAASEFTFGSSVMTWVRQAPGKGLEWVSVISGSGGSTYYADSVKGRFTISRDNSKNTLYLSMNSLRAEDTAVYYCAKTPWWLRSPFFDYWGQGTLVTVSS
notes: Variable domains only
Work on B11 yielded an MFI [1] of 2650 MFI, an EC50 [2] of 1.31 nM and an MFI [3] of 6920 MFI. It also gave a Kd [7] of 0.13 nM and a Kd [5] of 0.163 nM.
